Test results as given in patent US7867500B2, “Cofactor that modulates steroid receptor activities” (The United States of America as represented by the …, priority 2004, dated 2011).
Blank lines part the entries; values can stand above or below the molecule they belong to.

What was measured:
[1] = molecular target: T1, TIF2.4 (Homo sapiens, UniProt Q15596); assay: Cell-free pulldown of [35S]-labeled STAMP constructs by GST/TIF2.4; type: binding; conditions: compared with GST itself
T1 sequence (Q15596 624-1010 limits assumed): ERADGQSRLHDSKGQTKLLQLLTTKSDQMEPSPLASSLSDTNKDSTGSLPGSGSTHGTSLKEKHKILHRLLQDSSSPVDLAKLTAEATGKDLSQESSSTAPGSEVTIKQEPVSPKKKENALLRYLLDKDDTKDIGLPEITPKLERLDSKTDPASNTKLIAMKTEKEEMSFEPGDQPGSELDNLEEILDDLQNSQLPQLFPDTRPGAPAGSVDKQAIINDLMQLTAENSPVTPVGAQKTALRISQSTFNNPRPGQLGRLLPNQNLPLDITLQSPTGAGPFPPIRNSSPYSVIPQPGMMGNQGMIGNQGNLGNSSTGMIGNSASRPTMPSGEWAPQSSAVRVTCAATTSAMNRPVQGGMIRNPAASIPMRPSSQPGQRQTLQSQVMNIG
Description: FIGS. 7A and 7B illustrate the domains of STAMP that bind to TIF2.4 (FIG. 7A) and GR (FIG. 7B) in cell-free pulldown assays. Bacterially expressed GST-chimeras (GST/TIF2.4 in FIG. 7A and GST/STAMP segments in FIG. 7B) were immobilized on glutathione-Sepharose beads. The [^35S]methionine labeled STAMP fragments (FIG. 7A) or wild type GR (FIG. 7B) that were retained on the matrix by binding to the GST chimeras were separated on SDS PAGE gels and visualized by autoradiography. Specific binding was seen as when the GST/TIF2.4 or GST/STAMP bands were darker than the GST control bands. […] Similar results were obtained in a second experiment.
Template DNA plasmids (1 μg), 40 μl of Promega TNT (SP6) quick coupled transcription/translation system master mixture, and 2 μl of [^35S]methionine (Amersham Biosciences) were brought up to a total volume of 50 μl with H2O and incubated at 30° C. for 90 min according to the manufacturer's (Promega) recommendations. If hormone stimulation is needed, hormones (Dex, etc) were added into the transcription-translation reaction during the 30° C. incubation to both increase the stability of the synthesized GR and to cause activation of the GR-steroid complexes.
These assays were conducted generally as described (He et al., 2002). Sonicated bacterial lysates (1 ml) containing overexpressed GST, GST/TIF2.4, or GST/STAMP-956C were incubated with 160 μl of glutathione-Sepharose 4B beads for 1 hr at 0° C. The mixture was centrifuged (12,000×g), the supernatant was discarded, and the pellet was washed with phosphate-buffered saline (3×1 ml). Each 20-μl sample of immobilized GST or GST-chimera was then incubated overnight with 10 μl of ^35S-labeled in vitro translation product. The matrix was washed with phosphate-buffered saline (4×1 ml). The immobilized proteins were removed from the beads by heating at 90° C. for 5 min in 20 μl of 2×SDS loading buffer. The proteins were separated on 8-10% SDS-PAGE gels and detected by radio-autoradiography.

[2] = molecular target: T1, TIF2.4; assay: Mammalian two-hybrid assay in CV-1 cells (pFRLuc reporter) with TIF2.4; type: cell-based; parameters: expressed in transfected cells; host or cells: CV-1
Description: FIG. 2A-2C illustrate the isolation and characterization of the partial clone of the protein that binds to TIF2.4. […] Five clones were obtained but only two (clones I and V) contained a protein that was needed for colony growth in the presence of the pSos/TIF2.4 fusion protein. After initial screening, only clone I (also named 6-6CL1) was selected for further investigation. FIG. 2B and FIG. 2C illustrate the selectivity of 6-6CL1 interactions with TIF2.4 in mammalian two-hybrid assays. Triplicate samples of CV-1 cells in 24-well plates were transiently transfected with the indicated GAL-DBD and VP16-AD plasmids along with the GAL4-regulated reporter, pFRLuc. The relative luciferase activity, normalized for the activity of the internal Renilla control, was determined and plotted as the average±S.D. The much lower activity of GAL/TIF2.4m123 was previously shown not to be due to unequal levels of protein expression (He et al., 2002). Similar results were obtained in three additional experiments. FIG. 2D and FIG. 2E provide a comparison of binding to 6-6CL1 by similarly positioned domains of SRC-1 and TIF2. Triplicate samples of CV-1 cells in 24-well plates were analyzed as in (B&C) after being transiently transfected with GAL±6-6CL1 constructs and pFRLuc reporter along with VP16 chimeras of SRC-1 (FIG. 2D) or TIF2 (FIG. 2E) segments. Similar results for SRC-1 were obtained in two additional experiments (ND=not determined). Western blots (FIG. 2F) indicate that the low activity of TIF2(1140C) (see FIG. 1) is not due to inadequate protein expression.
FIGS. 6A and 6B illustrate the domains of STAMP that interact with TIF2.4 (FIG. 6A) and GR (FIG. 6B) in the mammalian two-hybrid assay. […] These CV-1 cells were also transfected with GAL fused to the indicated segments of STAMP along with the FRLuc reporter and Renilla control plasmids. After determining the relative luciferase activities as described in FIG. 2B and 2C, the average values±S.E.M. from 2-5 experiments were plotted. The average fold increase for VP16/TIF2.4 with GAL/STAMP(623-834) in FIG. 6A was 11.0±3.0 (SEM, n=5) above the VP16 control. The values in parentheses above the data bars in FIG. 6B indicate the fold increased interaction ±1 μM Dex.
These assays were conducted as described (He et al., 2002). In particular, the recommended procedure for the Mammalian Matchmaker two-hybrid assay kit (Clontech) was modified slightly by changing from a chloramphenicol acetyltransferase reporter to a Luciferase Reporter pFRLuc (Stratagene), which is under the control of five repeats of the upstream activating sequence for the binding of GAL4.

B1: STAMP: SRC-1 and TIF2 Associated Modulatory Protein, 1277 amino acid human polypeptide, expressed from transfected plasmid (protein)
chain: MARDLEETASSSEDEEVISQEDHPCIMWTGGCRRIPVLVFHADAILTKDNNIRVIGERYHLSYKIVRTDSRLVRSILTAHGFHEVHPSSTDYNLMWTGSHLKPFLLRTLSEAQKVNHFPRSYELTRKDRLYKNIIRMQHTHGFKVFHILPQTFLLPAEYAEFCNSYSKDRGPWIVKPVASSRGRGVYLINNPNQISLEENILVSRYINNPLLIDDFKFDVRLYVLVTSYDPLVIYLYEEGLARFATVRYDQGAKNIRNQFMHLTNYSVNKKSGDYVSCDDPEVEDYGNKWSMSAMLRYLKQEGRDTTALMAHVEDLIIKTIISAELAIATACKTFVPHRSSCFELYGFDVLIDSTLKPWLLEVNLSPSLACDAPLDLKIKASMISDMFTVVGFVCQDPAQRASTRPIYPTFESSRRNPFQKPQRCRPLSASDAEMKNLVGSAREKGPGKLGGSVLGLSMEEIKVLRRVKEENDRRGGFIRIFPTSETWEIYGSYLEHKTSMNYMLATRLFQDRMTADGAPELKIESLNSKAKLHAALYERKLLSLEVRKRRRRSSRLRAMRPKYPVITQPAEMNVKTETESEEEEEVALDNEDEEQEASQEESAGFLRENQAKYTPSLTALVENTPKENSMKVREWNNKGGHCCKLETQELEPKFNLMQILQDNGNLSKMQARIAFSAYLQHVQIRLMKDSGGQTFSASWAAKEDEQMELVVRFLKRASNNLQHSLRMVLPSRRLALLERRRILAHQLGDFIIVYNKETEQMAEKKSKKKVEEEEEDGVNMENFQEFIRQASEAELEEVLTFYTQKNKSASVFLGTHSKISKNNNNYSDSGAKGDHPETIMEEVKIKPPKQQQTTEIHSDKLSRFTTSAEKEAKLVYSNSSSGPTATLQKIPNTHLSSVTTSDLSPGPCHHSSLSQIPSAIPSMPHQPTILLNTVSASASPCLHPGAQNIPSPTGLPRCRSGSHTIGPFSSFQSAAHIYSQKLSRPSSAKAGSCYLNKHHSGIAKTQKEGEDASLYSKRYNQSMVTAELQRLAEKQAARQYSPSSHINLLTQQVTNLNLATGIINRSSASAPPTLRPIISPSGPTWSTQSDPQAPENHSSSPGSRSLQTGGFAWEGEVENNVYSQATGVVPQHKYHPTAGSYQLQFALQQLEQQKLQSRQLLDQSRARHQAIFGSQTLPNSNLWTMNNGAGCRISSATASGQKPTTLPQKVVPPPSSCASLVPKPPPNHEQVLRRATSQKASKGSSAEGQLNGLQSSLNPAASVPITSSTDPAHTKI
binding to GST/TIF2.4 [1]: weak interaction

interaction with TIF2.4 [2]: weak response
B2: STAMP834C: STAMP fragment amino acids 834-1277, receptor interaction domain (RID) (protein)
chain: GDHPETIMEEVKIKPPKQQQTTEIHSDKLSRFTTSAEKEAKLVYSNSSSGPTATLQKIPNTHLSSVTTSDLSPGPCHHSSLSQIPSAIPSMPHQPTILLNTVSASASPCLHPGAQNIPSPTGLPRCRSGSHTIGPFSSFQSAAHIYSQKLSRPSSAKAGSCYLNKHHSGIAKTQKEGEDASLYSKRYNQSMVTAELQRLAEKQAARQYSPSSHINLLTQQVTNLNLATGIINRSSASAPPTLRPIISPSGPTWSTQSDPQAPENHSSSPGSRSLQTGGFAWEGEVENNVYSQATGVVPQHKYHPTAGSYQLQFALQQLEQQKLQSRQLLDQSRARHQAIFGSQTLPNSNLWTMNNGAGCRISSATASGQKPTTLPQKVVPPPSSCASLVPKPPPNHEQVLRRATSQKASKGSSAEGQLNGLQSSLNPAASVPITSSTDPAHTKI
binding to GST/TIF2.4 [1]: neither the amino terminal (N623) nor the C-terminal (834C) fragments exhibit significantly more binding to GST/TIF2.4 than to GST itself

binding to GST/TIF2.4 [1]: strong binding
interaction with TIF2.4 [2]: did interact
average fold increase for VP16/TIF2.4 above the VP16 control ([2]; SEM, n=5): 11.0±3.0 fold
B3: 6-6CL1: STAMP fragment amino acids 623-834, coactivator interaction domain (CID) (protein)
chain: ENTPKENSMKVREWNNKGGHCCKLETQELEPKFNLMQILQDNGNLSKMQARIAFSAYLQHVQIRLMKDSGGQTFSASWAAKEDEQMELVVRFLKRASNNLQHSLRMVLPSRRLALLERRRILAHQLGDFIIVYNKETEQMAEKKSKKKVEEEEEDGVNMENFQEFIRQASEAELEEVLTFYTQKNKSASVFLGTHSKISKNNNNYSDSGAKG
